This passage reports Kd results from patent CN105646713A (UNIV CHINA PHARMA, dated 2016).

The test concerns the target T1, CD24多肽 (human, UniProt P25063 27-59).
T1 construct: domain: CD24核心区; also called CD24核心区多肽; 抗原肽CD24
T1 peptide (looked up): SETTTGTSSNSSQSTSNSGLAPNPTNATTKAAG
The test can be described thus: Competitive ELISA by the Friguet method: 10 pM antibody preincubated overnight with 0-6.25e-10 M antigen, then free antibody captured on coated CD24 peptide; KD from linear regression. (ELISA stands for enzyme-linked immunosorbent assay.)

B1: 单克隆抗体E4 (antibody, V domains shown)
VH: QVKLEESGGGLVQPGGSLKISCAASGPDFSRYWMSWVRQAPGKGLEWIGEINPDYSTINYTPSLRDKFIISRDNAKNTLYLQMSKVRYEDTSLYYCVRQGDYWGQGTSVTVSS
VL: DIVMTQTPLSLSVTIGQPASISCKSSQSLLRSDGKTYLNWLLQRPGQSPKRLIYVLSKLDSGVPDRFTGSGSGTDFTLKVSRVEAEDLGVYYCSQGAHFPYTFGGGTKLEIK
notes: also called E4杂交瘤细胞株抗体
Consider B1, for which the affinity, expressed as Kd, was 840 pM.
